Measurements reported in patent publication US20170349646A1 (PANASONIC INTELLECTUAL PROPERTY MANAGEMENT, published 2017).

Assays:
[1] = biological target: recombinant nucleoprotein (NP) protein derived from influenza virus H1N1 to which a Flag tag was fus (influenza virus H1N1)
[2] = biological target: recombinant nucleoprotein derived from influenza virus subtype A H1N1 (Sino Biological, 11675-VO8H) (influenza virus subtype A H1N1)
Chain of recombinant nucleoprotein derived from influenza virus subtype A H1N1 (Sino Biological, 11675-VO8H) (influenza virus subtype A H1N1) (P03466 whole entry): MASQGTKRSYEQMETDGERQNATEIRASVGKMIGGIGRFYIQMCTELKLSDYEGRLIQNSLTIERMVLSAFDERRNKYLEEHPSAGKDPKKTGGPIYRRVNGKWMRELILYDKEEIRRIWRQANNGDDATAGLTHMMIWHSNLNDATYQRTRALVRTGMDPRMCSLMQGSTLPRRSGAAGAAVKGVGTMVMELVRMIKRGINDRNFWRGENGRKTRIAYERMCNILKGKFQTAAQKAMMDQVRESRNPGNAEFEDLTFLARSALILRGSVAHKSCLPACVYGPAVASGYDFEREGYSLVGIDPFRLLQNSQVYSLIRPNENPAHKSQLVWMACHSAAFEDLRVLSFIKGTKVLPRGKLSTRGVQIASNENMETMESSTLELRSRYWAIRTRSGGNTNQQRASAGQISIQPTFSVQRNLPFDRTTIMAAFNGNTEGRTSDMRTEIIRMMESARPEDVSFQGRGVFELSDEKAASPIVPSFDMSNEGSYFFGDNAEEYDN

Chain of recombinant nucleoprotein (NP) protein derived from influenza virus H1N1 to which a Flag tag was fus (influenza virus H1N1) (P03466 whole entry): as above

B1: VHH antibody consisting of the amino acid sequence represented by SEQ ID NO: 08 (VHH)
VHH: EVQLVESGGGLVQAGDSLRLSCAASGRTFINLDMGWFRQPPGKEREYVAAITRNGAITSYADSAKGRFTISRDNAKNTVSLEMNSLKPEDTGVYYCAAYSISNYGSGWYKPDYWGQGAQVTVSS
For B1, the Kd [1] was 0.224 nM and the “EC50 (read off the curve)” value [2] was ~8 ng/mL.
